Reference: article PMC12197088

Key:
[1] = target: nucleolin (NCL), cell surface of MCF-7 (UniProt P19338); experiment: flow cytometry; conditions: intact MCF-7 cells (apparent cellular Kd); Dulbecco's PBS with CaCl2 and MgCl2, 4.5 g/L glucose, 5 mM MgCl2, 0.1 mg/mL yeast tRNA, 1 mg/mL BSA; on ice 30 min; pH not stated
[2] = target: nucleolin (NCL), cell surface of MCF-7;IGFIIR, cell surface of MCF-7 (UniProt P19338+P11717); experiment: flow cytometry; conditions: intact MCF-7 cells (apparent cellular Kd); Dulbecco's PBS with CaCl2 and MgCl2, 4.5 g/L glucose, 5 mM MgCl2, 0.1 mg/mL yeast tRNA, 1 mg/mL BSA; on ice 30 min; pH not stated
Chain of nucleolin (NCL), cell surface of MCF-7;IGFIIR, cell surface of MCF-7 (P19338 2-710, chain 1 of 2): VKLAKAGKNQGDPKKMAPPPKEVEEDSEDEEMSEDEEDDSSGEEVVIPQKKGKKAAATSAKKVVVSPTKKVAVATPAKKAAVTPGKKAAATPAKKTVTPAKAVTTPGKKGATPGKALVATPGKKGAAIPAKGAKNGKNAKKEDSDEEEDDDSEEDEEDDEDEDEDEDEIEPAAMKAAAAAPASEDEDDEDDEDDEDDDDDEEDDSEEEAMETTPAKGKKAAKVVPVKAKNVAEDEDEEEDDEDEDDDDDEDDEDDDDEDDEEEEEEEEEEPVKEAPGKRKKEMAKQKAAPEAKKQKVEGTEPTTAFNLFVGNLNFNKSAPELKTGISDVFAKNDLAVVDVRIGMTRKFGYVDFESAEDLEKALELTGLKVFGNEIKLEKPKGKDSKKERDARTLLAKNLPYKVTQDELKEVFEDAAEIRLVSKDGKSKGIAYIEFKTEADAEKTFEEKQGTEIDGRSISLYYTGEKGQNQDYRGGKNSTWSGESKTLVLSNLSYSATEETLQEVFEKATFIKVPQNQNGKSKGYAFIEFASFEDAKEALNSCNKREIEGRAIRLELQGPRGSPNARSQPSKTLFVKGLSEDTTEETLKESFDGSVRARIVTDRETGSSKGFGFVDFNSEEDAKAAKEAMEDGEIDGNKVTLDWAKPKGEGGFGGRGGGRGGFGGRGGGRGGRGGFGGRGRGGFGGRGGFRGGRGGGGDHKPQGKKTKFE
Chain of nucleolin (NCL), cell surface of MCF-7;IGFIIR, cell surface of MCF-7 (P11717 41-2491, chain 2 of 2): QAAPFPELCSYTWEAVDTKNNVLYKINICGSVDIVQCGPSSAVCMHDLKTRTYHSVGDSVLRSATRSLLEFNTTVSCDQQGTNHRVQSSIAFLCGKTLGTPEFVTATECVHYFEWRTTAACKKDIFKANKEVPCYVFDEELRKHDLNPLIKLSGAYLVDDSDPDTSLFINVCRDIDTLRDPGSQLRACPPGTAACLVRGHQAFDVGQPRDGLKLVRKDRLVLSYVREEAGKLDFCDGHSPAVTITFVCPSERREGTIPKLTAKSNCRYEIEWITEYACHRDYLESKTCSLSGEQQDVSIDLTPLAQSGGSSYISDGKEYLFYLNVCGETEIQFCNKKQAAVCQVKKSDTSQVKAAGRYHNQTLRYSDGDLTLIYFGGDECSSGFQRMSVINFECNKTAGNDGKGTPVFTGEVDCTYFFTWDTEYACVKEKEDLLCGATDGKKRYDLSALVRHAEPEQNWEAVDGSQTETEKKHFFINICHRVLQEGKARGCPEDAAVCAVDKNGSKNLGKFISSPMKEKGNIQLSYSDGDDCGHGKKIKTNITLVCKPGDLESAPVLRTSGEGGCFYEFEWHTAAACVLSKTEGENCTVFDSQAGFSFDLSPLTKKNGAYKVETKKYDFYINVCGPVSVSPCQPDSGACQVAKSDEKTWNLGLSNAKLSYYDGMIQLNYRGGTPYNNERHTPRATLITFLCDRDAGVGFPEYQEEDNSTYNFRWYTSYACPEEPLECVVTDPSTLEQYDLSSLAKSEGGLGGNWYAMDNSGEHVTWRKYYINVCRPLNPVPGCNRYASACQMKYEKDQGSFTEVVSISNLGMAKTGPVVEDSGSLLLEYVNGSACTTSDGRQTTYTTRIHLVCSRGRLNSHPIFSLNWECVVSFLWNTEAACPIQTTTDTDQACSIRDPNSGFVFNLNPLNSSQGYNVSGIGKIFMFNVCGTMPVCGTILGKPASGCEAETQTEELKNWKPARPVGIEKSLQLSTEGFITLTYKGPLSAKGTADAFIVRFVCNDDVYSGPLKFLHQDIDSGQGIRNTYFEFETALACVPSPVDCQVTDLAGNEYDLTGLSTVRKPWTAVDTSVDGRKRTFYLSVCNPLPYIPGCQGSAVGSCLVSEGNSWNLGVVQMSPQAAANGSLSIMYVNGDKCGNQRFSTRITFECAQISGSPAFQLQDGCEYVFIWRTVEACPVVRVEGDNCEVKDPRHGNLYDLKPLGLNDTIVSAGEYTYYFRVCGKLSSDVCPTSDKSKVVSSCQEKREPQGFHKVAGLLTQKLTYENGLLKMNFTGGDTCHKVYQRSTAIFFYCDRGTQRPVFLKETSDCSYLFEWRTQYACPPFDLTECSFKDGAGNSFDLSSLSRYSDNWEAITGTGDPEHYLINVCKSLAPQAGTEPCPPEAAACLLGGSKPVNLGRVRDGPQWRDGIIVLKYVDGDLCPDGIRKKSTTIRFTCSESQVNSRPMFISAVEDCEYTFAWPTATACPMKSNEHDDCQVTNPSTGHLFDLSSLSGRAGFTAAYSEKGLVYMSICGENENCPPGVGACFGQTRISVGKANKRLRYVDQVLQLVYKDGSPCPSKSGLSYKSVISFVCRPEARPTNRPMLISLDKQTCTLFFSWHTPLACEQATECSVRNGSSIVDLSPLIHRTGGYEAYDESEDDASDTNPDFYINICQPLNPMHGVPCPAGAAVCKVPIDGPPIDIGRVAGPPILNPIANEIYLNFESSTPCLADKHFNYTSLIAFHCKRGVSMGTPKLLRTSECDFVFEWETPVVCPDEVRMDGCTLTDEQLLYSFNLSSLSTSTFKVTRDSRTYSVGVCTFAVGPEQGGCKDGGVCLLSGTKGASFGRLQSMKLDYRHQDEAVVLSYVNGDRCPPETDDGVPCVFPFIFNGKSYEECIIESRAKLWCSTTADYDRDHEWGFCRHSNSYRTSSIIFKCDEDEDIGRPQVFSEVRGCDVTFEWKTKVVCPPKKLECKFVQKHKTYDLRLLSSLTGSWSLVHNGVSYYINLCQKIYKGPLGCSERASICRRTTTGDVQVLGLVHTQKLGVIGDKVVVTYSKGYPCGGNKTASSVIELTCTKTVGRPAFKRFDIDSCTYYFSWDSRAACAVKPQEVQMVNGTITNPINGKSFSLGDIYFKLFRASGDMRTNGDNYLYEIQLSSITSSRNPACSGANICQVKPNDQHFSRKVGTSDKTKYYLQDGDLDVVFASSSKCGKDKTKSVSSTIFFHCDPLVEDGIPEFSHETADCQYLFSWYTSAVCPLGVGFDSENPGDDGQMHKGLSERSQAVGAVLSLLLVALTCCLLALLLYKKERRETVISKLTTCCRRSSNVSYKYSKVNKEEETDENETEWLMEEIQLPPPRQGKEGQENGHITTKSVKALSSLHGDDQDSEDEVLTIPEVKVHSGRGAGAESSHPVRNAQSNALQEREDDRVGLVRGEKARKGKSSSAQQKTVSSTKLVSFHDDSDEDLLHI

Chain of nucleolin (NCL), cell surface of MCF-7 (P19338 2-710): as the sequence (P19338 2-710, chain 1 of 2) above

| Sequence | Kd [1] [nM] | Kd [2] [nM] |
| --- | --- | --- |
| GGTGGTGGTGGTTGTGGTGGTGGTGG [AS1411 (NCL aptamer)] | 137 |  |
| TTTTTTTTTTTTTTTGGGCGCGTAGATGACGAGCAGTCCTAACATCGTTTAGGAC / AAAAAAAAAAAAAAAGGTGGTGGTGGTTGTGGTGGTGGTGG [Mo-AS (monovalent NCL/IGFIIR chimera)] |  | 518 |
